Measurements published in patent US10064926B2, “Peptides and combination of peptides for use in immunotherapy against hepatocellular carcinoma (HCC) and other cancers” (Immatics biotechnologies GmbH, priority 2014, dated 2018).

Molecular target: HLA-A*02 (Homo sapiens, UniProt P04439, D140Y/D185E/D98H/E176V/E277Q/G131W/G231S/I119V/I121R/I166T/I218V/N151K/N90K/P208A/P217A/Q86G/Q94H/R138H/R169H)
Test: UV-ligand exchange / peptide binding to MHC class I (beta2m ELISA)
Conditions: peptide exchange yield
Excerpt: Candidate peptides for T cell based therapies according to the present invention were further tested for their MHC binding capacity (affinity). The individual peptide-MHC complexes were produced by UV-ligand exchange, where a UV-sensitive peptide is cleaved upon UV-irradiation, and exchanged with the peptide of interest as analyzed. Only peptide candidates that can effectively bind and stabilize the peptide-receptive MHC molecules prevent dissociation of the MHC complexes. To determine the yield of the exchange reaction, an ELISA was performed based on the detection of the light chain (β2m) of stabilized MHC complexes. The assay was performed as generally described in Rodenko et al. (Rodenko B, Toebes M, Hadrup S R, van Esch W J, Molenaar A M, Schumacher T N, Ovaa H. Generation of peptide-MHC class I complexes through UV-mediated ligand exchange. Nat Protoc. 2006; 1(3):1120-32).
96 well MAXISorp plates (NUNC) were coated over night with 2 ug/ml streptavidin in PBS at room temperature, washed 4× and blocked for 1 h at 37° C. in 2% BSA containing blocking buffer. Refolded HLA-A*0201/MLA-001 monomers served as standards, covering the range of 15-500 ng/ml. Peptide-MHC monomers of the UV-exchange reaction were diluted 100 fold in blocking buffer. Samples were incubated for 1 h at 37° C., washed four times, incubated with 2 ug/ml HRP conjugated anti-β2m for 1 h at 37° C., washed again and detected with TMB solution that is stopped with […]. Absorption was measured at 450 nm. Candidate peptides that show a high exchange yield (preferably higher than 50%, most preferred higher than 75%) are generally preferred for a generation and production of antibodies or fragments thereof, and/or T cell receptors or fragments thereof, as they show sufficient avidity to the MHC molecules and prevent dissociation of the MHC complexes.

[1] = Table 10A, UV-ligand exchange, β2m ELISA

147 (GLAPGGLAVV; listed as Homo sapiens) [compound 147]
Peptide exchange (MHC class I binding score) (Table 10B, HLA-A*02 peptides): “+++” (≥50 = +++)

148 (GLFAPLVFL; listed as Homo sapiens) [compound 148]
Peptide exchange (MHC class I binding score) (Table 10B, HLA-A*02 peptides): “++++” (≥75% = ++++)

149 (GLLSGLDIMEV; listed as Homo sapiens) [compound 149]
Peptide exchange (MHC class I binding score) (Table 10B, HLA-A*02 peptides): “++++” (≥75% = ++++)

150 (GLSNLGIKSI; listed as Homo sapiens) [compound 150]
Peptide exchange (MHC class I binding score) (Table 10B, HLA-A*02 peptides): “++++” (≥75% = ++++)

151 (HLAKVTAEV; listed as Homo sapiens) [compound 151]
Peptide exchange (MHC class I binding score) (Table 10B, HLA-A*02 peptides): “+++” (≥50 = +++)

152 (KLDNNLDSV; listed as Homo sapiens) [compound 152]
Peptide exchange (MHC class I binding score) (Table 10B, HLA-A*02 peptides): “+++” (≥50 = +++)

154 (KLTDHLKYV; listed as Homo sapiens) [compound 154]
Peptide exchange (MHC class I binding score) (Table 10B, HLA-A*02 peptides): “+++” (≥50 = +++)

156 (LLFPHPVNQV; listed as Homo sapiens) [compound 156]
Peptide exchange (MHC class I binding score) (Table 10B, HLA-A*02 peptides): “++++” (≥75% = ++++)

157 (QLLPNLRAV; listed as Homo sapiens) [compound 157]
Peptide exchange (MHC class I binding score) (Table 10B, HLA-A*02 peptides): “+++” (≥50 = +++)

158 (RIISGLVKV; listed as Homo sapiens) [compound 158]
Peptide exchange (MHC class I binding score) (Table 10B, HLA-A*02 peptides): “++” (≥20% = ++)

159 (RLFPDGIVTV; listed as Homo sapiens) [compound 159]
Peptide exchange (MHC class I binding score) (Table 10B, HLA-A*02 peptides): “+++” (≥50 = +++)

160 (RLLAKIICL; listed as Homo sapiens) [compound 160]
Peptide exchange (MHC class I binding score) (Table 10B, HLA-A*02 peptides): “++” (≥20% = ++)

161 (RLLDEQFAV; listed as Homo sapiens) [compound 161]
Peptide exchange (MHC class I binding score) (Table 10B, HLA-A*02 peptides): “+++” (≥50 = +++)

162 (RLMSALTQV; listed as Homo sapiens) [compound 162]
Peptide exchange (MHC class I binding score) (Table 10B, HLA-A*02 peptides): “++” (≥20% = ++)

163 (RLTESVLYL; listed as Homo sapiens) [compound 163]
Peptide exchange (MHC class I binding score) (Table 10B, HLA-A*02 peptides): “+++” (≥50 = +++)

164 (RMLIKLLEV; listed as Homo sapiens) [compound 164]
Peptide exchange (MHC class I binding score) (Table 10B, HLA-A*02 peptides): “+++” (≥50 = +++)

165 (RVIEHVEQV; listed as Homo sapiens) [compound 165]
Peptide exchange (MHC class I binding score) (Table 10B, HLA-A*02 peptides): “++++” (≥75% = ++++)

166 (SILDIVTKV; listed as Homo sapiens) [compound 166]
Peptide exchange (MHC class I binding score) (Table 10B, HLA-A*02 peptides): “+++” (≥50 = +++)

167 (SLAESSFDV; listed as Homo sapiens) [compound 167]
Peptide exchange (MHC class I binding score) (Table 10B, HLA-A*02 peptides): “+++” (≥50 = +++)

168 (SLAVLVPIV; listed as Homo sapiens) [compound 168]
Peptide exchange (MHC class I binding score) (Table 10B, HLA-A*02 peptides): “+++” (≥50 = +++)

169 (SLFEWFHPL; listed as Homo sapiens) [compound 169]
Peptide exchange (MHC class I binding score) (Table 10B, HLA-A*02 peptides): “+++” (≥50 = +++)

170 (SLHNGVIQL; listed as Homo sapiens) [compound 170]
Peptide exchange (MHC class I binding score) (Table 10B, HLA-A*02 peptides): “+++” (≥50 = +++)

171 (SLIPAVLTV; listed as Homo sapiens) [compound 171]
Peptide exchange (MHC class I binding score) (Table 10B, HLA-A*02 peptides): “+++” (≥50 = +++)

172 (SLLNFLQHL; listed as Homo sapiens) [compound 172]
Peptide exchange (MHC class I binding score) (Table 10B, HLA-A*02 peptides): “+++” (≥50 = +++)

173 (SLTSEIHFL; listed as Homo sapiens) [compound 173]
Peptide exchange (MHC class I binding score) (Table 10B, HLA-A*02 peptides): “+++” (≥50 = +++)

174 (TLAELGAVQV; listed as Homo sapiens) [compound 174]
Peptide exchange (MHC class I binding score) (Table 10B, HLA-A*02 peptides): “+++” (≥50 = +++)

175 (TLFEHLPHI; listed as Homo sapiens) [compound 175]
Peptide exchange (MHC class I binding score) (Table 10B, HLA-A*02 peptides): “+++” (≥50 = +++)

176 (TLGQIWDV; listed as Homo sapiens) [compound 176]
Peptide exchange (MHC class I binding score) (Table 10B, HLA-A*02 peptides): “++++” (≥75% = ++++)

177 (VLDEPYEKV; listed as Homo sapiens) [compound 177]
Peptide exchange (MHC class I binding score) (Table 10B, HLA-A*02 peptides): “+++” (≥50 = +++)

178 (YIFTTPKSV; listed as Homo sapiens) [compound 178]
Peptide exchange (MHC class I binding score) (Table 10B, HLA-A*02 peptides): “+++” (≥50 = +++)

179 (YIHNILYEV; listed as Homo sapiens) [compound 179]
Peptide exchange (MHC class I binding score) (Table 10B, HLA-A*02 peptides): “++++” (≥75% = ++++)

180 (YLGPHIASVTL; listed as Homo sapiens) [compound 180]
Peptide exchange (MHC class I binding score) (Table 10B, HLA-A*02 peptides): “+++” (≥50 = +++)

181 (YLLEKFVAV; listed as Homo sapiens) [compound 181]
Peptide exchange (MHC class I binding score) (Table 10B, HLA-A*02 peptides): “+++” (≥50 = +++)

182 (YLLHFPMAL; listed as Homo sapiens) [compound 182]
Peptide exchange (MHC class I binding score) (Table 10B, HLA-A*02 peptides): “+++” (≥50 = +++)

183 (YLYNNEEQVGL; listed as Homo sapiens) [compound 183]
Peptide exchange (MHC class I binding score) (Table 10B, HLA-A*02 peptides): “++” (≥20% = ++)

184 (VVLDGGQIVTV; listed as Homo sapiens) [compound 184]
Peptide exchange (MHC class I binding score) (Table 10B, HLA-A*02 peptides): “+++” (≥50 = +++)

185 (ALFPALRPGGFQA; listed as Homo sapiens) [compound 185]
Peptide exchange (MHC class I binding score) (Table 10B, HLA-A*02 peptides): “+++” (≥50 = +++)

186 (VLLAQIIQV; listed as Homo sapiens) [compound 186]
Peptide exchange (MHC class I binding score) (Table 10B, HLA-A*02 peptides): “+++” (≥50 = +++)

220 (SLLEKELESV; listed as Homo sapiens) [compound 220]
Peptide exchange (MHC class I binding score) [1]: +++ (50%-75% = +++) | Peptide exchange (MHC class I binding score) (Table 10B, HLA-A*02 peptides): “+++” (≥50 = +++)

221 (ALCEENMRGV; listed as Homo sapiens) [compound 221]
Peptide exchange (MHC class I binding score) [1]: +++ (50%-75% = +++) | Peptide exchange (MHC class I binding score) (Table 10B, HLA-A*02 peptides): “+++” (≥50 = +++)

222 (LTDITKGV; listed as Homo sapiens) [compound 222]
Peptide exchange (MHC class I binding score) (Table 10B, HLA-A*02 peptides): “++” (≥20% = ++)

223 (FLFNTENKLLL; listed as Homo sapiens) [compound 223]
Peptide exchange (MHC class I binding score) [1]: ++++ (>=75% = ++++) | Peptide exchange (MHC class I binding score) (Table 10B, HLA-A*02 peptides): “++++” (≥75% = ++++)

229 (KMFESFIESV; listed as Homo sapiens) [compound 229]
Peptide exchange (MHC class I binding score) (Table 10B, HLA-A*02 peptides): “+++” (≥50 = +++)

231 (RLFNDPVAMV; listed as Homo sapiens) [compound 231]
Peptide exchange (MHC class I binding score) (Table 10B, HLA-A*02 peptides): “++++” (≥75% = ++++)

233 (ALLGKLDAI; listed as Homo sapiens) [compound 233]
Peptide exchange (MHC class I binding score) (Table 10B, HLA-A*02 peptides): “++++” (≥75% = ++++)

234 (YLEPYLKEV; listed as Homo sapiens) [compound 234]
Peptide exchange (MHC class I binding score) (Table 10B, HLA-A*02 peptides): “++++” (≥75% = ++++)

235 (KLFEEIREI; listed as Homo sapiens) [compound 235]
Peptide exchange (MHC class I binding score) (Table 10B, HLA-A*02 peptides): “++++” (≥75% = ++++)

236 (ALADKELLPSV; listed as Homo sapiens) [compound 236]
Peptide exchange (MHC class I binding score) (Table 10B, HLA-A*02 peptides): “+++” (≥50 = +++)

237 (ALRGEIETV; listed as Homo sapiens) [compound 237]
Peptide exchange (MHC class I binding score) (Table 10B, HLA-A*02 peptides): “+++” (≥50 = +++)

238 (AMPPPPPQGV; listed as Homo sapiens) [compound 238]
Peptide exchange (MHC class I binding score) (Table 10B, HLA-A*02 peptides): “++” (≥20% = ++)

239 (FLLGFIPAKA; listed as Homo sapiens) [compound 239]
Peptide exchange (MHC class I binding score) (Table 10B, HLA-A*02 peptides): “+++” (≥50 = +++)

240 (FLWERPTLLV; listed as Homo sapiens) [compound 240]
Peptide exchange (MHC class I binding score) (Table 10B, HLA-A*02 peptides): “+++” (≥50 = +++)

241 (FVLPLLGLHEA; listed as Homo sapiens) [compound 241]
Peptide exchange (MHC class I binding score) (Table 10B, HLA-A*02 peptides): “++” (≥20% = ++)

242 (GLFAPVHKV; listed as Homo sapiens) [compound 242]
Peptide exchange (MHC class I binding score) (Table 10B, HLA-A*02 peptides): “+++” (≥50 = +++)

243 (GLLDNPELRV; listed as Homo sapiens) [compound 243]
Peptide exchange (MHC class I binding score) (Table 10B, HLA-A*02 peptides): “+++” (≥50 = +++)

244 (KIAELLENV; listed as Homo sapiens) [compound 244]
Peptide exchange (MHC class I binding score) (Table 10B, HLA-A*02 peptides): “++++” (≥75% = ++++)

245 (KLGAVFNQV; listed as Homo sapiens) [compound 245]
Peptide exchange (MHC class I binding score) (Table 10B, HLA-A*02 peptides): “++++” (≥75% = ++++)

246 (KLISSYYNV; listed as Homo sapiens) [compound 246]
Peptide exchange (MHC class I binding score) (Table 10B, HLA-A*02 peptides): “+++” (≥50 = +++)

247 (KLLDTMVDTFL; listed as Homo sapiens) [compound 247]
Peptide exchange (MHC class I binding score) (Table 10B, HLA-A*02 peptides): “++++” (≥75% = ++++)

248 (KLNDLIQRL; listed as Homo sapiens) [compound 248]
Peptide exchange (MHC class I binding score) (Table 10B, HLA-A*02 peptides): “+++” (≥50 = +++)

249 (LLLGERVAL; listed as Homo sapiens) [compound 249]
Peptide exchange (MHC class I binding score) (Table 10B, HLA-A*02 peptides): “++++” (≥75% = ++++)

250 (NLAEVVERV; listed as Homo sapiens) [compound 250]
Peptide exchange (MHC class I binding score) (Table 10B, HLA-A*02 peptides): “++++” (≥75% = ++++)

251 (RLFADILNDV; listed as Homo sapiens) [compound 251]
Peptide exchange (MHC class I binding score) (Table 10B, HLA-A*02 peptides): “++++” (≥75% = ++++)
